Paper PMC4401446

Columns and labels:
Experiment in all cases: SEC; protein at 500 ug/mL incubated 3 hours at 30°C, then Superdex 75 in 50 mM Tris-HCl pH 8.0, 150 mM NaCl, 5% (v/v) glycerol, calibrated with molecular mass standards; dimer to monomers
[1] = biological target: human triosephosphate isomerase N15D mutant (human)
[2] = biological target: human triosephosphate isomerase N15D/N71D double mutant (human)
[3] = biological target: human triosephosphate isomerase N71D mutant (human)

“human triosephosphate isomerase N15D mutant (enzyme)” was tested, and the stoichiometry N [1] was 2.
For “human triosephosphate isomerase N15D/N71D double mutant (enzyme)”, the stoichiometry N [2] was 2.
Substance “human triosephosphate isomerase N71D mutant (enzyme)” has a stoichiometry N [3] of 2.
